Reference: patent publication US20080118529

Legend:
[1] = biological target: T1, human fibrin α-chain (148-160) amyloid fragment with Lys157Ala mutation (FP13)
T1 chain: KRLEVDIDIAIRS

[2] = biological target: human Aβ(1-40) Dutch type

B1: human factor XII from plasma (Calbiochem, #233490) (protein)
chain: IPPWEAPKEHKYKAEEHTVVLTVTGEPCHFPFQYHRQLYHKCTHKGRPGPQPWCATTPNFDQDQRWGYCLEPKKVKDHCSKHSPCQKGGTCVNMPSGPHCLCPQHLTGNHCQKEKCFEPQLLRFFHKNEIWYRTEQAAVARCQCKGPDAHCQRLASQACRTNPCLHGGRCLEVEGHRLCHCPVGYTGAFCDVDTKASCYDGRGLSYRGLARTTLSGAPCQPWASEATYRNVTAEQARNWGLGGHAFCRNPDNDIRPWCFVLNRDRLSWEYCDLAQCQTPTQAAPPTPVSPRLHVPLMPAQPAPPKPQPTTRTPPQSQTPGALPAKREQPPSLTRNGPLSCGQRLRKSLSSMTRVVGGLVALRGAHPYIAALYWGHSFCAGSLIAPCWVLTAAHCLQDRPAPEDLTVVLGQERRNHSCEPCQTLAVRSYRLHEAFSPVSYQHDLALLRLQEDADGSCALLSPYVQPVCLPSGAARPSETTLCQVAGWGHQFEGAEEYASFLQEAQVPFLSLERCSAPDVHGSSILPGMLCAGFLEGGTDACQGDSGGPLVCEDQAAERRLTLQGIISWGSGCGDRNKPGVYTDVAYYLAWIREHTVS
- activation of factor XII, detected by the conversion of Chromozym-PK upon formation of kallikrein from prekallikrein [1]: Like kaolin, amyloid-like peptide aggregates of FP13 and Aβ stimulate the activation of factor XII
- activation of factor XII, detected by the conversion of Chromozym-PK upon formation of kallikrein from prekallikrein [2]: Like kaolin, amyloid-like peptide aggregates of FP13 and Aβ stimulate the activation of factor XII
- auto-activation of purified factor XII, substrate S-2222 [2]: All three amyloid-like aggregates are able to induce factor XII auto-activation ... the potency of the Aβ(1-40) E22Q is somewhat lower
